According to publication PMC12432895 (Molecular Therapy, 2025):

B1: ACI-5891 mouse IgG2a mAb produced with the bicistronic IRES-LC/HC expression cassette (antibody, V domains shown)
VH: EVQLQQSGPELVKPGASVKISCKTSGFTFTEYSMHWVKQSHGKSLEWIGGINPNNGGTSYNQKFKGKATLTVDKSSSTAYMELRSLTSEDSAVYYCARESWGQGTTLTVSS
VL: not shown
B2: anti-human TDP-43 mAb ACI-5891, mouse IgG2a, conventionally produced reference mAb (antibody, V domains shown)
VH: B1 VH
VL: not shown
B3: ACI-5891 human IgG1 chimeric mAb produced with the bicistronic IRES-LC/HC expression cassette (antibody, V domains shown)
VH: B1 VH
VL: not shown
B4: ACI-5891 human IgG1 chimeric reference mAb, conventionally produced (antibody, V domains shown)
VH: B1 VH
VL: not shown

Molecular target: recombinant soluble full-length human TDP-43 (transactive response DNA binding protein-43) (Homo sapiens (Human)., UniProt Q13148)
Sequence (Q13148 whole entry): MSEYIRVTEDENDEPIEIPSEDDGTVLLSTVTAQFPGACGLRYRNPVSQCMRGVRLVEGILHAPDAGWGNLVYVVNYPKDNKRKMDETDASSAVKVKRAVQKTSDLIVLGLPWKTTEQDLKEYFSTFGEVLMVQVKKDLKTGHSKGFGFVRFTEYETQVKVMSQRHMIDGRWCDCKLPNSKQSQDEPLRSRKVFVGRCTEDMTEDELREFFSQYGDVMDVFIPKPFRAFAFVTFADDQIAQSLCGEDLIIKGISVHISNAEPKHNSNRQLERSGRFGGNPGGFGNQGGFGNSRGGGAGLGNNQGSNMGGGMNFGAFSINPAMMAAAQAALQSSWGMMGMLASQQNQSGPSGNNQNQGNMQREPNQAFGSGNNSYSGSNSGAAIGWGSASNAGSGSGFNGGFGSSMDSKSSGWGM
Assay: SPR

| Kd [nM] | Binder |
| --- | --- |
| 0.09 | B1 |
| 0.092 | B2 |
| 0.092 | B3 |
| 0.087 | B4 |
